Data: patent publication US20230295597

Tests used:
[1] = target: T1, trADAMTS-13^R312K (truncated ADAMTS-13 mutant, Arg312 to Lys)
T1 chain: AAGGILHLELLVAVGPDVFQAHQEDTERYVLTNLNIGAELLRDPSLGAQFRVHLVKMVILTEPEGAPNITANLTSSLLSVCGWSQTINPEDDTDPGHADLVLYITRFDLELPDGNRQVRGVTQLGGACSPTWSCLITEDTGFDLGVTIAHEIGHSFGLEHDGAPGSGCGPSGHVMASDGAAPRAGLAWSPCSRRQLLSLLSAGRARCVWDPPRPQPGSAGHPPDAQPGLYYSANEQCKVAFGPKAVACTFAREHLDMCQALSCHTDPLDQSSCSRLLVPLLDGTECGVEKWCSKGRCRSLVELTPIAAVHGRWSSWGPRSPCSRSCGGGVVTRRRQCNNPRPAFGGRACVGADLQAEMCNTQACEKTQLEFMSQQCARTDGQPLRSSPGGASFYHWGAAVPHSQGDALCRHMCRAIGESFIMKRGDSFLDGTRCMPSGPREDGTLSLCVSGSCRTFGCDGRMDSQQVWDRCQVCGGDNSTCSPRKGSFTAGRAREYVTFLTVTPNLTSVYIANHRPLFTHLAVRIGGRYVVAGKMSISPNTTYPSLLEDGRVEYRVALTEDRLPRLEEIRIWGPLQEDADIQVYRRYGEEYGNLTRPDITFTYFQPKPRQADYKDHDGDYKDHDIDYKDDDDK

[2] = target: T2, trADAMTS-13^R312A (truncated ADAMTS-13 mutant, Arg312 to Ala)
T2 chain: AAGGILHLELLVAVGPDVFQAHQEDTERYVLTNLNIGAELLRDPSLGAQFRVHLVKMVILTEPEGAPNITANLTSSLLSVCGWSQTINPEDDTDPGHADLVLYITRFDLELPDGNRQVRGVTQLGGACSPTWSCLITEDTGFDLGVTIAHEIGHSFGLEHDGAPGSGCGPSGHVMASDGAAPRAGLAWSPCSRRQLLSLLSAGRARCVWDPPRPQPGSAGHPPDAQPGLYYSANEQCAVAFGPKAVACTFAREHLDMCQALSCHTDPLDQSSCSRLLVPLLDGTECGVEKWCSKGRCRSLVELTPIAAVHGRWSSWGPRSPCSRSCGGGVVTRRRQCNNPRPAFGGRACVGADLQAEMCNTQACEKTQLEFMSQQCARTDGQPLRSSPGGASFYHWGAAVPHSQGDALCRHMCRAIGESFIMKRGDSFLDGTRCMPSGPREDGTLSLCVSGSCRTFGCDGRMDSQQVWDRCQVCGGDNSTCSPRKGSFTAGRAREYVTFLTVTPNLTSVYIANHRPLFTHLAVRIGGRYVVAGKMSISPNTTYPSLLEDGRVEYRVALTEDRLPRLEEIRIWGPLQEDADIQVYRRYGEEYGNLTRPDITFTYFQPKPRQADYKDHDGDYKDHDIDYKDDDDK

[3] = target: T3, native full length human ADAMTS-13 (wild type)
T3 chain: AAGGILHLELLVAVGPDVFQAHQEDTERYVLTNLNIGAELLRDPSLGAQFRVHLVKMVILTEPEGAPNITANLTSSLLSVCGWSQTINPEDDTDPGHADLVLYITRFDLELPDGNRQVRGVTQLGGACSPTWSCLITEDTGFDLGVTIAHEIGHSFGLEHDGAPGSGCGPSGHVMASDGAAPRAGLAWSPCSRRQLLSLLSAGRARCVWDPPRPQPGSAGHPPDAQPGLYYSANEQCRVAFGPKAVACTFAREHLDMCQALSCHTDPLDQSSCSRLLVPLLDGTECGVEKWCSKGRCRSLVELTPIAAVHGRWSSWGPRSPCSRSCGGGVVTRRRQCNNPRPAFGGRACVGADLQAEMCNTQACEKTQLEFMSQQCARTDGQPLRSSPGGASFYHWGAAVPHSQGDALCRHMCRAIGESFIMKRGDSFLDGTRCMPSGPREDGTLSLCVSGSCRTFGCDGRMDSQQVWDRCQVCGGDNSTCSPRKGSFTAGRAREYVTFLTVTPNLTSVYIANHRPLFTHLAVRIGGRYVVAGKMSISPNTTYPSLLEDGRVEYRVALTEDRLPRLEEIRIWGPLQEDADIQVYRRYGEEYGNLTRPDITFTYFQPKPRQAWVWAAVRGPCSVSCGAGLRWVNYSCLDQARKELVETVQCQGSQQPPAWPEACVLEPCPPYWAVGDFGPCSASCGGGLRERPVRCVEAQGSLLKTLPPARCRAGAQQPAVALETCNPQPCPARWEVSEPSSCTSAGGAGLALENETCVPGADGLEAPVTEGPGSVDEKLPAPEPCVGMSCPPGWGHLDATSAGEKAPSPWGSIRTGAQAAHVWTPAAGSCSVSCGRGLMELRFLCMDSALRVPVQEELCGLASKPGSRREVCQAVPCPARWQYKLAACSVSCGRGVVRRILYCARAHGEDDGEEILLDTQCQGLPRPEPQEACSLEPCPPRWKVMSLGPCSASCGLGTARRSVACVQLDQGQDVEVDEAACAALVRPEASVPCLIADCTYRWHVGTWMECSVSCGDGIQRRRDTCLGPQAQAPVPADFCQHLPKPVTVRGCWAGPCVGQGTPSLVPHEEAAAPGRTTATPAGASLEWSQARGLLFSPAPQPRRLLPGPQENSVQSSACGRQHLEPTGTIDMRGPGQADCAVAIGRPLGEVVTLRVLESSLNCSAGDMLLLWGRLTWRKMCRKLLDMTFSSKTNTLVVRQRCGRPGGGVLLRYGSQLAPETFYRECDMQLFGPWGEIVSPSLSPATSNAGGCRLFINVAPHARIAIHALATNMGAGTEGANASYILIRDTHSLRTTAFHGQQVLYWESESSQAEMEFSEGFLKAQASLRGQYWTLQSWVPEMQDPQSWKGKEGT

B1: tissue plasminogen activator (tPA) (protein)
chain: SYQVICRDEKTQMIYQQHQSWLRPVLRSNRVEYCWCNSGRAQCHSVPVKSCSEPRCFNGGTCQQALYFSDFVCQCPEGFAGKCCEIGNSDCYFGNGSAYRGTHSLTESGASCLPWNSMILIGKVYTAQNPSAQALGLGKHNYCRNPDGDAKPWCHVLKNRRLTWEYCDVPSCSTCGLRQYSQPQFRIKGGLFADIASHPWQAAIFAKHRRSPGERFLCGGILISSCWILSAAHCFQERFPPHHLTVILGRTYRVVPGEEEQKFEVEKYIVHKEFDDDTYDNDIALLQLKSDSSRCAQESSVVRTVCLPPADLQLPDWTECELSGYGKHEALSPFYSERLKEAHVRLYPSSRCTSQHLLNRTVTDNMLCAGDTRSGGPQANLHDACQGDSGGPLVCLNDGRMTLVGIISWGLGCGQKDVPGVYTKVTNYLDWIRDNMRP
cleavage by tPA (Western blot) and residual proteolytic activity on vWF over time [1]: trADAMTS-13^R312K was resistant to cleavage by tPA under conditions where trADAMTS-13 was proteolyzed completely (FIG. 7A) and lost its catalytic activity (FIG. 7B) | residual proteolytic activity on vWF after 6 hours with or without tPA [1]: trADAMTS-13^R312K and trADAMTS-13^V313D variants were resistant to inactivation by tPA | residual proteolytic activity on vWF after 6 hours with or without tPA [2]: tPA inhibited the proteolytic activity of trADAMTS-13^R312A and trADAMTS-13^V313A variants on vWF (FIG. 8) | ADAMTS-13 activity with or without preincubation with tPA (technozym kit) [3]: the activity of both trADAMTS-13 and ADAMTS-13 WT was reduced in the presence of tPA (FIG. 4B)
